Changes are numbered by the printed parent chain.
How the values were obtained:
[1] = molecular target: T1, PTPRD G285E variant extracellular domain (human, UniProt P23468 21-1265); test: extracellular interaction screen: pentameric PTPRD variant ECD on ECD-Fc prey (FIG. 5L)
T1 construct: extracellular domain; also called IG3 mutant
T1 sequence (looked up): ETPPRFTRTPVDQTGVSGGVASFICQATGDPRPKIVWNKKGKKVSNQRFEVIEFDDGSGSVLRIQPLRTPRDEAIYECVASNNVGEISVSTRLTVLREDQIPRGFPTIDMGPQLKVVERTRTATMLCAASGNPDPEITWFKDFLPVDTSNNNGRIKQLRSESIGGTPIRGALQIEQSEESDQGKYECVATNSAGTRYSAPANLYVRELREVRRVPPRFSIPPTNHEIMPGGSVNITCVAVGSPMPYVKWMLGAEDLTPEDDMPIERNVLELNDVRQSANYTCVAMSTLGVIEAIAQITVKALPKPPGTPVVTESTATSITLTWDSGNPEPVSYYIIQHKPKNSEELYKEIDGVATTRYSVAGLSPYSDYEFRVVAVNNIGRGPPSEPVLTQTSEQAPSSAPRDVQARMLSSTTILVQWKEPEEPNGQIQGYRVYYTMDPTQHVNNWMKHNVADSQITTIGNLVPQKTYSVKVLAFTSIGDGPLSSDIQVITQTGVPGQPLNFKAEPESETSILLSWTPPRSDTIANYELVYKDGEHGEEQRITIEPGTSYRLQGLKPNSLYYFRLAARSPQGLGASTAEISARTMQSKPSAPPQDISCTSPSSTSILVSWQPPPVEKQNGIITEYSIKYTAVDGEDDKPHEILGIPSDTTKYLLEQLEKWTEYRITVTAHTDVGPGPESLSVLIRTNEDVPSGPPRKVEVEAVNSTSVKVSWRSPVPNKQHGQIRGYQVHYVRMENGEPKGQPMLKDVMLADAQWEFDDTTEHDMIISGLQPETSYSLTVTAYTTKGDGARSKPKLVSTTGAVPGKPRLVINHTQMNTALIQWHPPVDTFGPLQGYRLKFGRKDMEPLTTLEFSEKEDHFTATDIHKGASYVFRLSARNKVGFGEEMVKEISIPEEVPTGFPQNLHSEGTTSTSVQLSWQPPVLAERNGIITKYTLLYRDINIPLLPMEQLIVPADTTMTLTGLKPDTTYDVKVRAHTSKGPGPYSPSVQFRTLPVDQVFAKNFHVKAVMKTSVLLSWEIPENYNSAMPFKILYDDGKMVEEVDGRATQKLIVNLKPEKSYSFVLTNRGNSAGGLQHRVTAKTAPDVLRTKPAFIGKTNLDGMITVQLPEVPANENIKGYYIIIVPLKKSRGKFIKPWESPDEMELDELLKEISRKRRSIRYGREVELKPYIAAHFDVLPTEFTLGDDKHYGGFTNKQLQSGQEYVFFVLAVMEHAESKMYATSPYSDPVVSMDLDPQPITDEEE

[2] = molecular target: T2, PTPRD R561Q variant extracellular domain (human, UniProt P23468 21-1265); test: as above
T2 construct: extracellular domain; also called FN3 mutant
T2 sequence (looked up): T1 sequence (looked up) with E265G, R541Q

binding result [1]: no binding | binding result [2]: no binding
B1: LRRC4B extracellular domain (receptor, human, UniProt Q9NT99 36-576, looked up)
chain: AGGGGVAVTSAAGGGSPPATSCPVACSCSNQASRVICTRRDLAEVPASIPVNTRYLNLQENGIQVIRTDTFKHLRHLEILQLSKNLVRKIEVGAFNGLPSLNTLELFDNRLTTVPTQAFEYLSKLRELWLRNNPIESIPSYAFNRVPSLRRLDLGELKRLEYISEAAFEGLVNLRYLNLGMCNLKDIPNLTALVRLEELELSGNRLDLIRPGSFQGLTSLRKLWLMHAQVATIERNAFDDLKSLEELNLSHNNLMSLPHDLFTPLHRLERVHLNHNPWHCNCDVLWLSWWLKETVPSNTTCCARCHAPAGLKGRYIGELDQSHFTCYAPVIVEPPTDLNVTEGMAAELKCRTGTSMTSVNWLTPNGTLMTHGSYRVRISVLHDGTLNFTNVTVQDTGQYTCMVTNSAGNTTASATLNVSAVDPVAAGGTGSGGGGPGGSGGVGGGSGGYTYFTTVTVETLETQPGEEALQPRGTEKEPPGPTTDGVWGGGRPGDAAGPASSSTTAPAPRSSRPTEKAFTVPITDVTENALKDLDDVMKTTK
notes: extracellular domain; ECD-Fc prey; also called NGL-3; netrin-G ligand-3
